Laboratory results: US20180273639A1 (YEDA RESEARCH AND DEVELOPMENT, published 2018)
Numbering of substitutions follows the chain as printed. Numbers in names are those of the source.

Legend:
[1] = target: MmQSOX1 A116P and TLPG(138-141)VFPV (Mus musculus); assay: cell-based or functional assay
[2] = target: MmQSOX1 TLPG(138-141)VFPV (Mus musculus); assay: cell-based or functional assay
[3] = target: T1, Homo sapiens QSOX1 (recombinant HsQSOX1) (Homo sapiens, UniProt O00391 33-546, limits assumed); assay: cell-based or functional assay
T1 sequence: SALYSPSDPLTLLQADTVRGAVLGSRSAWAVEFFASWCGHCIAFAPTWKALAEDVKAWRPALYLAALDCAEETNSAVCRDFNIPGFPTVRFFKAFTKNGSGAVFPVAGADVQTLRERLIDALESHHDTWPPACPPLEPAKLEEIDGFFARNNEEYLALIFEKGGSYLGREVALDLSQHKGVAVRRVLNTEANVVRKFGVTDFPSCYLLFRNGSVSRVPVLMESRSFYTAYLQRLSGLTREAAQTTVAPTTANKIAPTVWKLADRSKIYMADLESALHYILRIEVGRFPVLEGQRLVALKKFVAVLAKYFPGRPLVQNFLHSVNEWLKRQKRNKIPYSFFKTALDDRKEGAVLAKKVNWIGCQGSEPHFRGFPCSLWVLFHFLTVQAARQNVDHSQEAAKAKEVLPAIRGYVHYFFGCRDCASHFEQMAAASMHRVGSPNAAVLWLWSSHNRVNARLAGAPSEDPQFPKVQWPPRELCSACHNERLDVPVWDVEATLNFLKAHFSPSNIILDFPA

MmQSOX1 A116P = MmQSOX1 A116P (Mus musculus); assay: cell-based or functional assay
biotinylated MmQSOX1Trx = target: T2, biotinylated MmQSOX1Trx (Mus musculus, UniProt Q8BND5 36-275, Biotin on the lysine of the C-terminal AviTag (tag not in the letters); in early screening rounds pre-loaded with streptavidin-APC); assay: yeast-surface display flow cytometry
T2 construct: Used for yeast-surface display; in the first screening rounds pre-loaded with streptavidin-APC in a 1:4 molar ratio; also called MmQSOX1Trx with AviTag; not shown: purification tag
T2 sequence: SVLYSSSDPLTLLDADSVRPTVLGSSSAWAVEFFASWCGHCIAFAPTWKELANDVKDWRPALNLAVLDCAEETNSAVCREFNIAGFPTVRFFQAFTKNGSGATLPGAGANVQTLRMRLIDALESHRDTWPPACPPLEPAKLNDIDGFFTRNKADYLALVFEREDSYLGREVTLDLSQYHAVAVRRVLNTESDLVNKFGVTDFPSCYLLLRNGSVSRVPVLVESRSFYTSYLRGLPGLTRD

MmQSOX1Trx [4] = target: T3, MmQSOX1Trx (Mus musculus, UniProt Q8BND5 36-275); assay: analytical size-exclusion chromatography
T3 construct: Residues 36-275 of Mus musculus QSOX1, made in E. coli, purified on Ni-NTA; also called MmQSOX1Trv; Trx module of MmQSOX1
T3 sequence: T2 sequence
Description: (§1) MsQSOX1-antibody complexes were injected after a 30 min co-incubation at 4° C. Elution of proteins was monitored by absorbance at 280 nm.

MmQSOX1Erv = target: T4, MmQSOX1Erv (Mus musculus, UniProt Q8BND5 289-550, FAD cofactor bound); assay: analytical size-exclusion chromatography
T4 construct: also called MmQSOX1 Erv module
T4 sequence: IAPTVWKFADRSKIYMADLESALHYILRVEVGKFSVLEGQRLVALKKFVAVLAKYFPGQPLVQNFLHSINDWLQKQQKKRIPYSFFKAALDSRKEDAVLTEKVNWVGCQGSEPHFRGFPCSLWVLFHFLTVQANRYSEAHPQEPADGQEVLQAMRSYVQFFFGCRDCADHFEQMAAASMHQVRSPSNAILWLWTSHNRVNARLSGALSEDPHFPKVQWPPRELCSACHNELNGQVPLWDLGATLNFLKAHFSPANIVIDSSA
Description: as §1

MmQSOX1Trx [5] = target: T3, MmQSOX1Trx; assay: complex purified by size-exclusion chromatography
Description: A stop codon was inserted after the CH1 segment of the heavy chain, to obtain a coding sequence for a Fab fragment. […] Prior to crystallization the complexes were concentrated to 10 mg/ml.

B1: MAb492.1 (antibody, V domains shown)
VH: QVQLKQSGPGLVAPSQSLSITCTVSGFSLTGYGVNWVRQSPGKGLEWLGMIWGDGRTDYKSALKSRLSITKDNSKSQVFLKMNSLQTDDTARYFCASDYYGSGSFAYWGQGTLVTVSA
VL: DVVMTQTHKFMSTSVGDRVSITCKASQDVSTAVAWYQQKSGQSPKLLIHSASYRYTGVPDRFTGSGSGTDFTFTISSVQAEDLAVYYCQQHYSIPLTFGAGTKLELK
For B1, the “percent inhibition of enzyme activity, oxygen consumption assay” value (“percent inhibition of enzyme activity” below) [1] was 100%, the “percent inhibition of enzyme activity” value [2] was about 50% and the “percent inhibition of enzyme activity” value [3] was 100%. The “percent inhibition of enzyme activity” value (MmQSOX1 A116P) was about 60%.

B2: scFv492.1 S93A Y99S Y100K G101D S102P D58E T31G H49S S50M Y52Q (scFv, V domains shown)
VH: B1 VH with D58E, Y99S, Y100K, G101D, S102P
VL: B1 VL with T31G, H49S, S50M, Y53Q, S93A
notes: also called template d; not shown: scFv linker and domain order; yeast display fusion partner and cMyc tag (pETCON)
B2: binds (biotinylated MmQSOX1Trx).

B3: MAb316.1 (antibody, V domains shown)
VH: QVQLQQSGPELVKPGASVKISCKASGYSFTSYYIHWVKQRPGQGLEWIGWIYPGSYNTEYSEKFKGKATLTADTSSSTAYMQLSSLTSEDSAVYYCARSEDWFAYWGQGTLVTVS
VL: QIVLTQSPAIMSASPGEKVTISCSASSSVSYMYWYHQKPGSSPKPWIYRTSNLASGVPARFSGSGSGTSYSLTISSMEAEDAATYYCQQYHSYPLTFGAGTKLELK
notes: Hybridoma antibody from QSOX1 knock-out mice immunised with MmQSOX1
B3: binds (MmQSOX1Trx [4]); no binding (MmQSOX1Erv).

B4: Fab316.1 (Fab, V domains shown)
VH: B3 VH
VL: B3 VL
notes: also called Fab fragment of MAb316.1
B4: binds (MmQSOX1Trx [5]).
